Test results taken from the DeepSol protein solubility set.

Test: soluble on expression in E. coli; label from the status in PepcDB or PDB records

Sequence: MHPSLRYIQGYPQNIVEQVSSLVDNGKLIPWFEKRYPDRHQIKSEKALYEYAIAIKNRYMKKASPISKVVYDKKIHAVNNALGLHSVISRNHGGKLKSKNEIRIANVFKDAPEALLRMLVVHELAHTREKNHDKAFYQLCCYMEPEYHQLELDARLFMIYLDLKANSNEEQLEHHHHHH
- soluble on expression in E. coli: soluble

Sequence: MGSDKIHHHHHHMKIAQVCPRFYPHIGGVETHVYEIASRIAKKFDVEVLTTDPGGKLPKVEEIDGLTVRRFKSLAPSEAYYFSPELYDYLKKNSSDYDVVHAHNYHAFPALFAALTKGKNKLIFTPHYHGSGHSFFRNVLHKPYKIFGRKIFKRADAIVCVSNYEKNLVLKNFKVAEDRTYVIPNGINLDEFKDIEKIKRNKESWKKTILYVGRVEKYKGLDYVVKSLKHLPDNFTLEVVGKGSYKSKIVEMAKKLDVIDRIRFYQDLSRKELIDRYAKADVLVLLSKHEAYGIVVAEALAAKTPCIVANTSALSEWIDNKNVFGIDYPINVSELARLIERVSNVKAGDMKLLDWDDVNERLIRIYSAKI
- soluble on expression in E. coli: not soluble

Sequence: MAKKTSSKGKLPPGPTPLPIIGNMLQIDVKDICKSFTNFSKVYGPVFTVYFGMNPIVVFHGYEAVKEALIDNGEEFSGRGNSPISQRITKGLGIISSNGKRWKEIRRFSLTTLRNFGMGKRSIEDRVQEEAHCLVEELRKTKASPCDPTFILGCAPCNVICSVVFQKRFDYKDQNFLTLMKRFNENFRILNSPWIQVCNNFPLLIDCFPGTHNKVLKNVALTRSYIREKVKEHQASLDVNNPRDFIDCFLIKMEQEKDNQKSEFNIENLVGTVADLFVAGTETTSTTLRYGLLLLLKHPEVTAKVQEEIDHVIGRHRSPCMQDRSHMPYTDAVVHEIQRYSDLVPTGVPHAVTTDTKFRNYLIPKGTTIMALLTSVLHDDKEFPNPNIFDPGHFLDKNGNFKKSDYFMPFSAGKRICAGEGLARMELFLFLTTILQNFNLKSVDDLKNLNTTAVTKGIVSLPPSYQICFIPVHHHH
- soluble on expression in E. coli: soluble

Sequence: MLGSSSLSIRTTDDKSLFARTMDFTMEPDSKVIIVPRNYGIRLLEKENVVINNSYAFVGMGSTDITSPVLYDGVNEKGLMGAMLYYATFATYADEPKKGTRGINPVYVISQVLGNCVTVDDVIEKLTSYTLLNEANIILGFAPPLHYTFTDASGESIVIEPDKTGITIHRKTIGVMTNSPGYEWHQTNLRAYIGVTPNPPQDIMMGDLDLTPFGQGAGGLGLPGDFTPSARFLRVAYWKKYTEKAKNETEGVTNLFHILSSVNIPKGVVLTNEGKTDYTIYTSAMCAQSKNYYFKLYDNSRISAVSLMAENLNSQDLITFEWDRKQDIKQLNQVNVMS
- soluble on expression in E. coli: soluble

Sequence: MKVYKDVFTNDEVCSDSYNQEDPFGIADFREIAFEVKSNKRIKGNDDYGIADNSEEAVDGMGADVEQVIDIVDSFQLTSTSLSKKEYSVYIKNYMQKILKYLEEKKPDRVDVFKTKAQPLIKHILTNFDDFEFYMGESLDMDAGLTYSYYKGEEVTPRFVYISDGLYEEKF
- soluble on expression in E. coli: soluble

Sequence: MAFRVLVIGGYGNFGSLICNHLAMMPDIELVISGRDPRKLAEKVAALQTLAGRFCQSWCVDIMQDGAGSELGELGIDLLIHTAGPFQGQSYAVARHCIAAGVNYCDLSDCRTFVSGIATLDALAREAGVCVLSGCSSVPTLSAAIIDQHRQRFLRIDSIEHGISSAAKMPGLSTVR
- soluble on expression in E. coli: not soluble

Sequence: MTTTMSTLPVVLVDEILARVPITSLRSLRSTCKKWEASSKTNLVGGKATARKSSHVGFILIGDKICSMKLDLNGGDDFVDTSVNQVSAFDGFAISQLFHCDGLLFCISNNHYSNYTLMVCNMYLGETRLIQNRSLFESYQNFCSYAFGYDSSKNRNHKILRNNSVSGGYEIYSLKSDSWKDLNVDLEKSIHLWRLGSVSLKGNAYFRVIKVIEEGVWEYNLLCFDFTRESFGKLLSLPFESLGDEGEGIMVISCVRDDHLAVLYQRDTLGIWISTEIEPNKVSWREFLQVDLATLDGFPDVFIAGRFIVDEEKQVVVVFGQETELDLNHGNAFIFGRDGYFTSFTVGDAPPEDFTSYVPSLVSLQIDKTGKRKARDD
- soluble on expression in E. coli: soluble

Sequence: MISHLFQTYGRRTVEFVKGNGTKVIDNNGKQYLDFTSGIGVCNLGHCHPTVMKAVQEQLNDIWHISNLFTNSLQEEVASLLTENIALDYVFFCNSGAEANEAALKLARKHTGKSLVVTCEQSFHGRTFGTMSATGQNKVKEGFGPLLPSFLHTPFNDIKALKEVMNEEVAAVMVEVVQGEGGVIPADLSFLKEIETLCKKFGSLFIIDEVQTGIGRTGTLFAYEQMGIDPHIVTTAKALGNGIPVGAMIGRKELGTSFTAGSHGSTFGGNYVAMAAAKEVLQVSKRLSFLKEVQEKGEYVLQKLQEELQHVECIQNIRGKGLMVGIECTHEVASFIEQLEKEGLLVLQAGPNVIRLLPPLIVTNEELEQAVYMIKKVVCTKNVSII
- soluble on expression in E. coli: not soluble

Sequence: MKQLKSLDSDLEKAIGRISGGLYIITAQKGEVKGAMLASWVSQASFNPPGFTVAVAKDRAIESLMQVGDRFVLNILEEGNYQILMKHFLKRFPPGADRFAGVKTQTASNGSPILTDALAYLECEVASRMECSDHWIVYSQVTNGRVAKAEGLTAVHHRKVGNYYLEHHHHHH
- soluble on expression in E. coli: not soluble

Sequence: MSNLKQLRTRIKSVKSTQKITKAMQLVSASKMAKIKSQIANSNFYIEAVSKMMSAILSIDMYELSIEEQKFFNTVPNKANLLIVMTSQRGLCGTFNYSIIKQVKNDIKELENKGEQIKLIIIGKKGYEALKRQYVNYIDSYFELPKIHDENLMLQVKQKIMSAVENLEVSNCVIYFNKFKNAMTQIMTRQQILPVAKYQDDSMIDNPIVNLVGFGYKERGVKPINNRRATSDIVGESKSIDYNYEYEGESLISNLINLYVNSQINYALLQSRASEEGARMTAMENATNNANDLISKLVLKLNRSRQAIITTELIEIIAGSEVV
- soluble on expression in E. coli: not soluble

Sequence: TTNWLNYRAGSVAYEQAAEPLELLTEARIHAQRARTDETLALVWRQSLENSNHTFSTTLKRVDKALSKPGLDPAEVAAARNAMNTWRASHEELTNFLNSGRYEEALKLTTEGPSAFTDLDAALDSLIDSTRVRLRTEIRGVDTTQVN
- soluble on expression in E. coli: not soluble

Sequence: MKFEGIYTPAITPLSADGSIDTQAFAEVLEFLVESKVHGIVIGGSTGEYYAHTAEERLALAAHASEVIAGRLPLVVGTGAIRTEDSLAYAEAARAIGADAILVGSPPYALPTSREIAEHVLAVDRAAGLPIMLYNYPARMGVEMDEAFFAAVAGCRNIVAIKESSGSTAQLHRLACRHPRIALSCGWDDQALEFFAWGARSWVCAGSNFIPGEHLALYQACVVENDFAKGRRIMAAMMPLMDFLESGHFVQSIKHGCELAGLRAGGVRAPLKALDEAGKAALAEIVARLKGEVAR
- soluble on expression in E. coli: not soluble

Sequence: MGSDKIHHHHHHMDVENIFRDVKLSKTEMTVLRFIQNDPEQCIRQGVRAVAEQCYSNPSSLVRLAKKLKFSGWLELVYFIKFNITMPKLDVTNDIDYMSVQPEEALTPLLASLNQQRILIHGSGFSQLIAQYIYNKFLVTGVNASLALWPDYEILEQKNAACFDSIWIISKSGRSSSALNWVKALEGKEINLVCFTGDYQSPLAQAADTAFIIHDPQKFDDDIYWSNPFFGYCILGFERLLKMWFTSLRSNS
- soluble on expression in E. coli: not soluble

Sequence: VFPSSVYVPDEWEVSREKITLLRELGQGSFGMVYEGNARDIIKGEAETRVAVKTVNESASLRERIEFLNEASVMKGFTCHHVVRLLGVVSKGQPTLVVMELMAHGDLKSYLRSLRPEAENNPGRPPPTLQEMIQMAAEIADGMAYLNAKKFVHRDLAARNCMVAHDFTVKIGDFGMTRDIYETDYYRKGGKGLLPVRWMAPESLKDGVFTTSSDMWSFGVVLWEITSLAEQPYQGLSNEQVLKFVMDGGYLDQPDNCPERVTDLMRMCWQFNPNMRPTFLEIVNLLKDDLHPSFPEVSFFHSEENK
- soluble on expression in E. coli: soluble

Sequence: MFDDQDEIHPLLAGAPQTTEFRKLRKRIVREVREAIETYGMVERGARWLVCLSGGKDSYTLLAVLHELKWRGLLPVDLLACNLDQGQPGFPATVLPEFLSRMGVPHRIEYQDTYSIVMDKIPQGRTYCALCSRLRRGNLYRIAREEGCSAVVLGHHRDDILETFFMNLFHGGRLATMPPKLVNEDGDLFVYRPLAFVAEADCEKFARDMAYPIIPCDLCGSQEGLQRQQVKQILDGWEARSPGRRQVMFRALMNARPSHLLDPGLFDFLGLATAPRASEERQDEPPHLRGEA
- soluble on expression in E. coli: not soluble

Sequence: MSLNGQSEYKGKLDYIIVLGAGLRGKHMLGTQYERVKKAAEYVKENPDVKIVVSGGKGNGEDISEAEAMKQYFLNKGFKNDSIIMEDKSKNTFENLRNSKKILEKISNKKEIRVGVVTSSYHITRAKLLGKRVGLKLYAIPAPINKLLLLQSYTREFFAFYKSIIFDRGEGHHHHHH
- soluble on expression in E. coli: not soluble

Sequence: MTRTLASLFGPLQPMALAEDLAAPLLAMPIPEGAADPAAAARAPAAGPTVPDRFTVARGLAVVPVRGILTPNMAQYERWFGWATYHGLAETMAHLAASEDAAAIVLEIDSPGGLVCGIEAAAEAIAAAAAVKPVHALVSPLAASAAYWLASQASEIVMTPGAVAGSIGVALTAAAHVQPGANGAQIFEMSSRHARAKRPDASTEAGRAELQRSLDEAEAAFHAAVSAGRAIPAAELAARLSVTDDPQDGGATFRAPEAIRRGLADRIETRAAFYARLAARTAPKPRSPSRAFAARAAAAAALARS
- soluble on expression in E. coli: not soluble

Sequence: MDRLSYAIGDKAVLNNIRVQFQPGSVTALLGPNGAGKSTLLKALCQEIPSAQGSIKLGHCQLVDWPRAELAKSLAVLPQHASLTFPFTVDEVVAMGLYPLTLSQKEGQQLVTKWLAEVGVLHLARRSYPTLSGGEKQRVQLARVLTQLSQSPFPPILLLDEPTSALDLAQQHKVLALAKNLAHKHAYTVIVVLHDLNQAARYSDRVIVLKQGEIVSEGTPNDALSIDIIRQVWDYEPEFIPAPQGDYPLIF
- soluble on expression in E. coli: not soluble

Sequence: MSLKFAVLVFPGSNCDRDMYNAAIKSGVDAAYVDYRETTLDGFDGVLIPGGFSFGDYLRSGAMASVAPIIKEVKRFAKEGKPVLGVCNGFQILTEIGLLPGALLHNDSHLFISRNETLKITNNQTPFTHLYVKNENVVYPVAHGEGHYYCTDEIYRELNDNNQIILKYTNNPNGSYEDIAGIVNKEGNVCGMMPHPERALETLLGTNSGVKLFESMVKSWREQNEGHHHHHH
- soluble on expression in E. coli: soluble

Sequence: MGRSRRTLPEELLLLALDPTTGTTAQPQSLDLGLAGAQLVELALAGRIAPDGDRIAVVAPRPTGDPTLDCALELLRRRGAPVRAVNWIGGPRLGLRQTYLSHLERCGMVHAVEGQMCGVLPTTRYQATDTAISREIKARLDSAIRTGVPPDPRTAALAALAHAVGLGKHLYPGNEGRSSRSRLRDLIRHDPMGGLVAHAVMDVQNGAAAQPRRSPAPAGRQAPGPGARPAPEPARGVPAQPRHGSMARAAVHLEHHHHHH
- soluble on expression in E. coli: soluble

Sequence: MGIDVVMTNRRGEPPPELSTLPCFPFKWEQQGEQLPLAPAALEGVTHVLNGIPPDRQGEDAVALALLPQLEKLNLHWFGYLSTTGVYGDRQGGWVDETTPVNPQNLRSQHRVRIEQVFLNANLPTHIFRLPGIYGPGEGRNPIARILKGDVQLIDKPGHYFCRIHVADIVQTLERSLAQPTPQEIYNLSDDQPSESLPVLLEAYRLLGRPAPPAIPLEAANLSPMAQSFWRESRRVRNDKIKQALGVQLRYPSYREGLRAIARELGLEHHHHHH
- soluble on expression in E. coli: not soluble

Sequence: MAHHHHHHMSSASIVALSLSLSFSLGLLRSLGSARHIRYGHPHTNTSAYGGRHPRMQVMAAAARTYRHIVARELSTNFRAVASIVEAPFPTVLHPKAILVKNKYLGVNASDINFTAGIYQPDVRPPFACGFEAVGEVVDVGSGVKDLKAGAAVVTQSYGAFAEYQVVARRHAKPIPRVAREYLPLDLSATTASIALEHVLKPQPGERAVVTAAAGGTGQFAVQLLKHVYGCSVVGTCSSPSKEVFLTNTLKCDGVVNYKAEGGDTAAAFLRCYPRGVNIAYESVGGDLLEAVIQSLAPRGRILSLGCVSTYQCGSIEAACPSRKPLPLQLLAKSASLSTFFLPHFAKYGQLHFDRLCALHEQGLVQCCIDPTTFEGLEGVYDAIDWMFEQKNCGKVMVEL
- soluble on expression in E. coli: not soluble
